Laboratory results: paper PMC2815190 (Molecular immunology, 2009)
Blank lines part the entries; values can stand above or below the molecule they belong to.

Tests used:
[1] = target: human Toll-like receptor 8 with the RQSYA motif deleted (human) (UniProt Q9NR97); test: immunoblot of cell lysate
[2] = target: the molecule itself; test: immunoblot of cell lysate

stoichiometry N [1]: 2
Molecule: human Toll-like receptor 8 with the RQSYA motif deleted (from UniProt Q9NR97-1 27-1041)

B1: human Toll-like receptor 8, wild type (receptor, UniProt Q9NR97-1 27-1041, looked up)
chain: EENFSRSYPCDEKKQNDSVIAECSNRRLQEVPQTVGKYVTELDLSDNFITHITNESFQGLQNLTKINLNHNPNVQHQNGNPGIQSNGLNITDGAFLNLKNLRELLLEDNQLPQIPSGLPESLTELSLIQNNIYNITKEGISRLINLKNLYLAWNCYFNKVCEKTNIEDGVFETLTNLELLSLSFNSLSHVPPKLPSSLRKLFLSNTQIKYISEEDFKGLINLTLLDLSGNCPRCFNAPFPCVPCDGGASINIDRFAFQNLTQLRYLNLSSTSLRKINAAWFKNMPHLKVLDLEFNYLVGEIASGAFLTMLPRLEILDLSFNYIKGSYPQHINISRNFSKLLSLRALHLRGYVFQELREDDFQPLMQLPNLSTINLGINFIKQIDFKLFQNFSNLEIIYLSENRISPLVKDTRQSYANSSSFQRHIRKRRSTDFEFDPHSNFYHFTRPLIKPQCAAYGKALDLSLNSIFFIGPNQFENLPDIACLNLSANSNAQVLSGTEFSAIPHVKYLDLTNNRLDFDNASALTELSDLEVLDLSYNSHYFRIAGVTHHLEFIQNFTNLKVLNLSHNNIYTLTDKYNLESKSLVELVFSGNRLDILWNDDDNRYISIFKGLKNLTRLDLSLNRLKHIPNEAFLNLPASLTELHINDNMLKFFNWTLLQQFPRLELLDLRGNKLLFLTDSLSDFTSSLRTLLLSHNRISHLPSGFLSEVSSLKHLDLSSNLLKTINKSALETKTTTKLSMLELHGNPFECTCDIGDFRRWMDEHLNVKIPRLVDVICASPGDQRGKSIVSLELTTCVSDVTAVILFFFTFFITTMVMLAALAHHLFYWDVWFIYNVCLAKVKGYRSLSTSQTFYDAYISYDTKDASVTDWVINELRYHLEESRDKNVLLCLEERDWDPGLAIIDNLMQSINQSKKTVFVLTKKYAKSWNFKTAFYLALQRLMDENMDVIIFILLEPVLQHSQYLRLRQRICKSSILQWPDNPKAEGLFWQTLRNVVLTENDSRYNNMYVDSIKQY
stoichiometry N [2]: 2
